Measured values published in US20130224235A1.

Key:
Assay in all cases: indirect ELISA, protein coated, serum 1:100
[1] = biological target: 6xHis tagged C-terminal fusion protein (gp100 209-217(2M) peptide fused to PVA CP C-terminus) expres (Potato virus A (isolate B11)) (UniProt Q85197)
[2] = biological target: 6xHis tagged N-terminal fusion protein (gp100 209-217(2M) peptide fused to PVA CP N-terminus) expres (Potato virus A (isolate B11)) (UniProt Q85197)
[3] = biological target: 6xHis tagged wild type potato virus A coat protein (wtCP) expressed in E. coli from wtCP/pQE (Potato virus A (isolate B11)) (UniProt Q85197)

Measured: optical density at 450 nm

control mouse serum raised against PBS (antibody)
< 0.35 OD 450 nm: all assays above
